Test results: article doi:10.1101/2025.11.07.687251, “Reconstitution of multistep recruitment of ULK1 to membranes in autophagy” (bioRxiv, 2025)
Values belong to the binder of their own block, whether it stands above or below them.

Key:
[1] = molecular target: T1, MBP-mCherry-ULK1(291–828) (human, UniProt O75385 291-828); assay: pull-down; microscopy-based bead assay (Fig. S3): GST-ATG13(6–196)/ATG101 as bait on GSH beads; MBP-mCherry-ULK1 fragments added separately; mCherry on the beads imaged; details: both partners purified
T1 construct: ULK1, human, intrinsically disordered region, residues 291-828 (no kinase domain, no EAT domain); also called mCherry-ULK1 ^ΔKDΔEAT (291–828); ULK1 IDR; source: purified (amylose resin); not shown: mCherry, N-terminal, kept
T1 sequence (looked up): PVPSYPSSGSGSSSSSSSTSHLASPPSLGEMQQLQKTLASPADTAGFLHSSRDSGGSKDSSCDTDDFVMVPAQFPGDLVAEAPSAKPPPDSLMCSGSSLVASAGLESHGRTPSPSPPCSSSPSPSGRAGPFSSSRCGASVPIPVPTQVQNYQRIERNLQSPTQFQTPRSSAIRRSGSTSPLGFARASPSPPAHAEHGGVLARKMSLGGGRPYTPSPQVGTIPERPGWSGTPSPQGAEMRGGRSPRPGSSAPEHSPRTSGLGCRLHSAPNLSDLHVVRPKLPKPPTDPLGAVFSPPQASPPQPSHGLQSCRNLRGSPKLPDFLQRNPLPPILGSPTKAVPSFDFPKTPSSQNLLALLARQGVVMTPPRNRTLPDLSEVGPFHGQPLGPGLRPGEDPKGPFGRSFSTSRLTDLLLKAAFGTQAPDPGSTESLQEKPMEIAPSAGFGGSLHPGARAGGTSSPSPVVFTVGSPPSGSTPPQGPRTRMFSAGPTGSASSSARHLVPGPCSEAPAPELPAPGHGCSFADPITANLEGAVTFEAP

[2] = molecular target: T2, mcherry-ATG13(1–230)/TSF-ATG101 (human, UniProt O75143 1-230; Q9BSB4 1-218); assay: pull-down; microscopy-based bead assay (Fig. 5e): GST-GFP-ULK1(415–464) (WT or ADA) as bait on GSH beads; mcherry-ATG13(1–230)/TSF-ATG101 as prey; mCherry channel quantified; details: both partners purified
T2 construct: ATG13, human; ATG101, human, wild type; TSF-tagged proteins in general were purified on Strep-Tactin Sepharose; also called mCherry-ATG13^HD:TSF-ATG101; mCherry-ATG13^HD:ATG101; not shown: mCherry, N-terminal, kept
T2 sequence (looked up) 1: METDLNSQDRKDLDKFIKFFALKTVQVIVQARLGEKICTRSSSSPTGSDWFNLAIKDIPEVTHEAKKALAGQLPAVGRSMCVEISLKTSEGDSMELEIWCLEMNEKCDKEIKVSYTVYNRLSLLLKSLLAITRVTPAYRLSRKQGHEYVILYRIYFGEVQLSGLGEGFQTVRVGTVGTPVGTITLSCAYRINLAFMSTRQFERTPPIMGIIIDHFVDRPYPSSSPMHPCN
T2 sequence (looked up) 2: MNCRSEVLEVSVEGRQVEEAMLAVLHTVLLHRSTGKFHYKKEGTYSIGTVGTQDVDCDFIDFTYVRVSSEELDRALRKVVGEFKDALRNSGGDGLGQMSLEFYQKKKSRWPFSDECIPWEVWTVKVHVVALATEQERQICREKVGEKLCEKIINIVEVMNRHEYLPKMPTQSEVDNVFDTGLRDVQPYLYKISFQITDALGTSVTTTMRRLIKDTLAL

- binding result [1]: binds
B1: GST-ATG13(6–196)/ATG101 (complex, human)
chain 1: NSQDRKDLDKFIKFFALKTVQVIVQARLGEKICTRSSSSPTGSDWFNLAIKDIPEVTHEAKKALAGQLPAVGRSMCVEISLKTSEGDSMELEIWCLEMNEKCDKEIKVSYTVYNRLSLLLKSLLAITRVTPAYRLSRKQGHEYVILYRIYFGEVQLSGLGEGFQTVRVGTVGTPVGTITLSCAYRINLAFM
chain 2: T2 sequence (looked up) 2
notes: ATG101, human, wild type; no tag is named; also called GST-ATG13^HD:ATG101; ATG13^HD:ATG101; source: HEK293T-GNTI- cells, transfected (PEI), purified (GSH resin, S200 SEC); not shown: GST, N-terminal, kept

- binding result [2]: binds
B2: GST-GFP-ULK1(415–464) (domain or fragment, human, UniProt O75385 415-464, looked up)
chain: SGRAGPFSSSRCGASVPIPVPTQVQNYQRIERNLQSPTQFQTPRSSAIRR
notes: ULK1, human, IDR fragment with the PVP motif, residues 415-464; GST-tagged proteins in general were purified on GSH resin; also called GST-tagged fragment of the ULK1 IDR encompassing residues 415–464; not shown: GST, N-terminal, kept; GFP, N-terminal, kept
